Measurements from patent US20240158474A1 (SINO BIOLOGICAL, published 2024).

Key:
[1] = molecular target: T1, HPV56 VLP protein (human papillomavirus type 56, UniProt P36743 36-507); assay: indirect ELISA on coated VLP
T1 construct: Complete VLP protein; no limits of the construct printed, whole entry named; also called HPV56L1
T1 sequence: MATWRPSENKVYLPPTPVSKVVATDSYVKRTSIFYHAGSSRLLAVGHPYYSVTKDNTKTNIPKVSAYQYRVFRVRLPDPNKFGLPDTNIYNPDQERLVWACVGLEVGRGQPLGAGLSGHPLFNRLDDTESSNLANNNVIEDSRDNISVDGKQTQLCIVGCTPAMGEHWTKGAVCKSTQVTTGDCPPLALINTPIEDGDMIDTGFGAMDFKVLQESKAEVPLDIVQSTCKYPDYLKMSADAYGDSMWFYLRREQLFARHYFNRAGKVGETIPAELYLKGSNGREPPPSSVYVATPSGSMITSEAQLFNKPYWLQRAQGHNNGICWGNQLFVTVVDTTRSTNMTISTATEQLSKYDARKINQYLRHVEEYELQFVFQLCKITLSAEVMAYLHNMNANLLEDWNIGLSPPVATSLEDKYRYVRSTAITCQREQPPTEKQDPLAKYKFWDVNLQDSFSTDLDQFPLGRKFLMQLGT

[2] = molecular target: T2, HPV52 VLP protein (human papillomavirus type 52, UniProt Q05138 27-504); assay: indirect ELISA, VLP coated at 2 µg/mL, antibody 10 ng/mL, HRP goat anti-rabbit Fc
T2 construct: Complete VLP protein; no limits of the construct printed, whole entry named; also called P52SHELL
T2 sequence: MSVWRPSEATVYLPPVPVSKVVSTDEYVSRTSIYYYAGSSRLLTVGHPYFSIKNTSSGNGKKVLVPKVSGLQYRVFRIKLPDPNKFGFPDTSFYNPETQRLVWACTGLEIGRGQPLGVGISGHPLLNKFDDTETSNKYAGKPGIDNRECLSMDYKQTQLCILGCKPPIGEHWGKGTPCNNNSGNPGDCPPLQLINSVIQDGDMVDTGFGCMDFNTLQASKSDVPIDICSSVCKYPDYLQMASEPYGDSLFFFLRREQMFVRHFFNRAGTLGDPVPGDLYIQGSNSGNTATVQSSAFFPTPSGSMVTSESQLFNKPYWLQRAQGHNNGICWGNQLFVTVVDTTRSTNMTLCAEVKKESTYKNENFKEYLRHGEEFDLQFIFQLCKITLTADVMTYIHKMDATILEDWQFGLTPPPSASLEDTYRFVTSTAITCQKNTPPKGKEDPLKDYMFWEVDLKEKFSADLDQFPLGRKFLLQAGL

[3] = molecular target: T3, HPV33 VLP protein (human papillomavirus type 33, UniProt P06416 1-499); assay: as above
T3 construct: Complete VLP protein; no limits of the construct printed, whole entry named; also called HPV33L1
T3 sequence: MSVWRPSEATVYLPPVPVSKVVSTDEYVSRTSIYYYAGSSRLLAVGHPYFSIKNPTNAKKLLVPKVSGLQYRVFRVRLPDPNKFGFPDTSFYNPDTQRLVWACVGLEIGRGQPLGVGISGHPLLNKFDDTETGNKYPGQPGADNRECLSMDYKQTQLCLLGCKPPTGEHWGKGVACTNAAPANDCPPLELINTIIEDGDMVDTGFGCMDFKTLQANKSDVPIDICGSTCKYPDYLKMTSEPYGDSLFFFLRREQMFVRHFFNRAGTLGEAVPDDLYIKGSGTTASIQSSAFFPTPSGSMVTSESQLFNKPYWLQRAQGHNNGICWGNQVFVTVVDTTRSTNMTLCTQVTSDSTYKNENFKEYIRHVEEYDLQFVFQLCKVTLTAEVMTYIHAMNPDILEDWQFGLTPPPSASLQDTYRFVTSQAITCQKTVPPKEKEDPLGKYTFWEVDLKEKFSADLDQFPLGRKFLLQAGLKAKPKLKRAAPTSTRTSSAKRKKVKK

[4] = molecular target: T4, HPV6 VLP protein (human papillomavirus type 6 (C-terminal …, UniProt P69898 1-469)); assay: as above
T4 construct: Virus-like particle self-assembled from the L1 chain, expressed in an insect cell system; also called HPV6 L1; HPV6L1(1-469Y)+HPV33L1(474K-499K)
T4 sequence: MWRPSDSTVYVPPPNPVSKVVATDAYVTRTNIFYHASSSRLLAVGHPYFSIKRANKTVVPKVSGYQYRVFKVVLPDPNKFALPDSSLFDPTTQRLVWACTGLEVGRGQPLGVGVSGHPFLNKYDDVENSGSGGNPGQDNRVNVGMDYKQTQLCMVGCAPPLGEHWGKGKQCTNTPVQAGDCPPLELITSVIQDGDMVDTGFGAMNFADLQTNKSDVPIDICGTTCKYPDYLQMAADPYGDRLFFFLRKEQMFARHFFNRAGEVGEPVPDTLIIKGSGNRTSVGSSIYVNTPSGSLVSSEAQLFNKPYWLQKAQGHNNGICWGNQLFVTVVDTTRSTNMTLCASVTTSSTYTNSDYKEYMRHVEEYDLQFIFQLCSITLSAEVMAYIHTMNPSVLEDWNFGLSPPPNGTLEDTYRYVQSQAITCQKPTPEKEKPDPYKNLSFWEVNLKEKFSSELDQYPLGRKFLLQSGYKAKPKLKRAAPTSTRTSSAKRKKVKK

[5] = molecular target: T5, HPV35 VLP protein (human papillomavirus type 35; human …, UniProt P27232 1-472; P06416 474-499); assay: as above
T5 construct: range 1-472;range 474-499; Complete VLP protein used as coating protein; also called HPV35L1(1-472L)+HPV33L1(474K-499K)
T5 sequence: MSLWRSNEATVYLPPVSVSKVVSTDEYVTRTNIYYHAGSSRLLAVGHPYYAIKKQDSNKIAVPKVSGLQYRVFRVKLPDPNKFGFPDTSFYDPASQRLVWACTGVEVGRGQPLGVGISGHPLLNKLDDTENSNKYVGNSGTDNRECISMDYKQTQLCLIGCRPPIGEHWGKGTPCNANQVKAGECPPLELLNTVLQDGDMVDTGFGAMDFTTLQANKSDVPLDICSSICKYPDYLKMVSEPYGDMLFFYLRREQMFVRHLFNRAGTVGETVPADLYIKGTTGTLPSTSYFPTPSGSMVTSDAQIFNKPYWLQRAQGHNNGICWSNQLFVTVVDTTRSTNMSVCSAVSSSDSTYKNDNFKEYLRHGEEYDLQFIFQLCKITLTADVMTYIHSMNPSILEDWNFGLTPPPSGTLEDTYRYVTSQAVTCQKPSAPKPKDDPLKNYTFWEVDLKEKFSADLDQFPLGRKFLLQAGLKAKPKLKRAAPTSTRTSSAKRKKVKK

B1: monoclonal antibody HPV6-R003 (antibody, V domains shown)
VH: QQQLEESGGGLVKPGGTLTLTCKASGIDLSNYYMCWVRQAPGKGLEWIGCIYTGSGRTYYASWAKGRFTISKASSTTVTLQMTSLTAADTATYFCARDYLGWRASNIWGPGTLVTVSS
VL: ELVMTQTPSSVSAAVGGTVTINCQASQSVYSNNLVWYQQKPGQPPKLLIYGASTLASGVPSRFKGSGSGTQFTLTISDVVCDDAATYYCGGYVSDSTDGTAFGGGTEVVVKG
notes: here built from variable plus constant region so that the signal peptides are left out; In the sandwich ELISA the same antibody is used as coating antibody and, labelled with horseradish peroxidase, as detection antibody; also called anti-HPV6 L1 protein antibody
Which results are given for B1?
binding result [1]: no binding (tested: antibody 10 ng/mL; coating 2 µg/mL); OD450-blank [2]: 0.044 OD450; OD450-blank [3]: 0.047 OD450; OD450-blank [4]: 2.42 OD450; OD450-blank [5]: 0.048 OD450
